The source of these data is the supplement of paper PMC7877785.

The nature of this data set: self-splicing fitness, log relative to wild type (ln ratio); higher = more splicing; Tetrahymena group I intron in knt gene, E. coli kanamycin selection, DiMSum; sequences stand for … in CUCUCU…GGAGGGAAAAGUUAUCAGGCAUGCACCUGGUAGCUAGUCUUUAAACCAAUAGAUUGCAUCGGUUUAAAAGGCAAGACCGUCAAAUUGCGGGAAAGGGGUCAACAGCCGUUCAGUACCAAGUCUCAGGGGAAACUUUGAGAUGGCCUUGCAAAGGGUAUGGUAAUAAGCUGACGGACAUGGUCCUAACCACGCAGCCAAGUCCUAAGUCAACAGAUCUUCUGUUGAUAUGGAUGCAGUUCACAGACUAAAUGUCGGUCGGGGAAGAUGUAUUCUUCUCAUAAGAUAUAGUCGGACCUCUCCUUAAUGGGAGCUAGCGGAUGAAGUGAUGCAACACUGGAGCCGCUGGGAACUAAUUUGUAUGCGAAAGUAUAUUGAUUAGUUUUGGAGUACUCGUGGUCG
A digest of the protocol:
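Pooled colonies went to amplicon sequencing on an Illumina HiSeq 2500 after six replicate transformations. The plates were LB agar with 100 μg/mL carbenicillin, 50 μM IPTG and 0.2% rhamnose, with or without 25 μg/mL kanamycin, incubated overnight at 37°C or 30°C. The E. coli BL21(DE3) library had all eight P1ex-region intron nucleotides randomised, the intron placed in the knt kanamycin-resistance gene on pET-22b(+). DiMSum fitness is the error-weighted combination of replicate fold changes, kanamycin against none, normalised to wild type.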

± gives the uncertainty stated by the source.

As to UAUUAGCAAUAUUACGUGGG, the “self-splicing fitness (ln)” value was -4.06 ± 0.27 (30 °C) and -2.44 ± 0.17 (37 °C). In the case of GAUAAGCAAUAUUACGACAG, the “self-splicing fitness (ln)” value reads like this: (30 °C) -3.46 ± 0.24; (37 °C) -1.89 ± 0.23. GCAAAGCAAUAUUACGGAGC: the “self-splicing fitness (ln)” value reads like this: (30 °C) -3.91 ± 0.34; (37 °C) -2.07 ± 0.19. UAGAAGCAAUAUUACGUCGC: the “self-splicing fitness (ln)” value runs as follows: (30 °C) -3.7 ± 0.38; (37 °C) -2.21 ± 0.32. For CUAUAGCAAUAUUACGCUAA, the “self-splicing fitness (ln)” value is, setting by setting: (30 °C) -1.65 ± 0.2; (37 °C) -2.41 ± 0.32. As for AGACAGCAAUAUUACGUAAU, the “self-splicing fitness (ln)” value (30 °C) was -1.3 ± 0.05 and the “self-splicing fitness (ln)” value (37 °C) is -0.92 ± 0.071. The corresponding values for GUGCAGCAAUAUUACGUCUC are -0.469 ± 0.084 and 0.48 ± 0.11. As for GACGAGCAAUAUUACGCCUA, the “self-splicing fitness (ln)” value (30 °C) was -0.714 ± 0.32.

For the sequence CUUAAGCAAUAUUACGUUCA, the “self-splicing fitness (ln)” value reads like this: (30 °C) -2.9 ± 0.27; (37 °C) -3.79 ± 0.47. The corresponding values for UCCCAGCAAUAUUACGUAAA are -0.605 ± 0.065 and 0.00983 ± 0.085. AGUCAGCAAUAUUACGGUCU: the “self-splicing fitness (ln)” value by setting is: (30 °C) -0.851 ± 0.06; (37 °C) -0.146 ± 0.068. For UCGUAGCAAUAUUACGUAAA, in that order: -2.09 ± 0.2 and -0.594 ± 0.17. On to UAGGAGCAAUAUUACGGAGG, for which the “self-splicing fitness (ln)” value is -4.35 ± 0.42 (30 °C) and -2.73 ± 0.32 (37 °C). With UAACAGCAAUAUUACGCUGC, the “self-splicing fitness (ln)” value is -2.45 ± 0.3 (30 °C) and -1.92 ± 0.28 (37 °C). As for CUGGAGCAAUAUUACGCAUA, the “self-splicing fitness (ln)” value (37 °C) is -2.22 ± 0.37. Turning to GCAAAGCAAUAUUACGGAUU, the “self-splicing fitness (ln)” value was -0.922 ± 0.067 (30 °C) and -0.799 ± 0.1 (37 °C). As to CCAUAGCAAUAUUACGACGC, the “self-splicing fitness (ln)” value is, setting by setting: (30 °C) -2.27 ± 0.26; (37 °C) -2.51 ± 0.39. On to UCGCAGCAAUAUUACGGCGU, for which the “self-splicing fitness (ln)” value (30 °C) is -2.06 ± 0.16 and the “self-splicing fitness (ln)” value (37 °C) was 0.251 ± 0.11. Regarding AGUAAGCAAUAUUACGUAUG, the “self-splicing fitness (ln)” value reads like this: (30 °C) -2.94 ± 0.29; (37 °C) -2.15 ± 0.24. On to CAUAAGCAAUAUUACGGUUA, for which the “self-splicing fitness (ln)” value was -2.7 ± 0.16 (30 °C) and -2.05 ± 0.12 (37 °C). The corresponding values for UUUAAGCAAUAUUACGGAAU are -3.63 ± 0.26 and -2.36 ± 0.33.

Turning to CCUCAGCAAUAUUACGACUG, the “self-splicing fitness (ln)” value was -3.09 ± 0.23 (30 °C) and -2.76 ± 0.21 (37 °C). Turning to CGCGAGCAAUAUUACGGUCC, the “self-splicing fitness (ln)” value is -3.29 ± 0.4 (30 °C) and -2.12 ± 0.44 (37 °C). In the case of CUAGAGCAAUAUUACGCAUU, the “self-splicing fitness (ln)” value reads like this: (30 °C) -3.2 ± 0.18; (37 °C) -2.2 ± 0.25. Take GGACAGCAAUAUUACGGUCG: the “self-splicing fitness (ln)” value is -1.1 ± 0.092 (30 °C) and -0.39 ± 0.14 (37 °C). For CGUCAGCAAUAUUACGUUCC, in that order: -2.43 ± 0.16 and -1.18 ± 0.23. Take GGGGAGCAAUAUUACGCAGU: the “self-splicing fitness (ln)” value (37 °C) was -1.35 ± 0.36. Turning to AAUUAGCAAUAUUACGAAAA, the “self-splicing fitness (ln)” value runs as follows: (30 °C) -2.54 ± 0.24; (37 °C) -0.586 ± 0.19.

On to GGCAAGCAAUAUUACGCCUC, for which the “self-splicing fitness (ln)” value runs as follows: (30 °C) -2.03 ± 0.13; (37 °C) -1.34 ± 0.12. For UUAAAGCAAUAUUACGUACA, the “self-splicing fitness (ln)” value came to 0.237 ± 0.088 (30 °C) and 0.0455 ± 0.12 (37 °C). On to CAGGAGCAAUAUUACGUCAU, for which the “self-splicing fitness (ln)” value (37 °C) was -1.89 ± 0.33.

CGGAAGCAAUAUUACGCCCG: the “self-splicing fitness (ln)” value (30 °C) was -2.86 ± 0.36. As to AAACAGCAAUAUUACGCGCA, the “self-splicing fitness (ln)” value by setting is: (30 °C) -0.282 ± 0.081; (37 °C) -0.19 ± 0.087. With CCAGAGCAAUAUUACGGCAC, the “self-splicing fitness (ln)” value was -3.21 ± 0.32 (30 °C) and -2.73 ± 0.27 (37 °C).

With CAUGAGCAAUAUUACGGCUA, the “self-splicing fitness (ln)” value is, setting by setting: (30 °C) -2.75 ± 0.45; (37 °C) -1.87 ± 0.2. For AUUAAGCAAUAUUACGAUUU, in that order: -0.227 ± 0.091 and 1.04 ± 0.12. The corresponding values for AAUCAGCAAUAUUACGCACC are -0.409 ± 0.17 and 0.0564 ± 0.22. For GCAGAGCAAUAUUACGUACA, the “self-splicing fitness (ln)” value (30 °C) was -2.86 ± 0.28 and the “self-splicing fitness (ln)” value (37 °C) is -0.806 ± 0.24. With CGCUAGCAAUAUUACGUGCC, the “self-splicing fitness (ln)” value by setting is: (30 °C) -1.58 ± 0.11; (37 °C) -0.959 ± 0.15.
